Data: patent publication US20240316154A1 (Eli Lilly, published 2024)
Where two headings read alike, the source gives them in different places.

Columns and labels:
Rabbit serum albumin [1] = target: T1, Rabbit serum albumin (rabbit, UniProt P49065 25-608); test: SPR, SA on chip, 25 C
T1 construct: bought; immobilised on a CM5 chip by amine coupling; also called Rabbit SA

[2] = target: IL-2 receptor-dimer pair of the PathHunter IL-2 BioAssay cells; test: cell-based or functional assay
Human serum albumin [3] = target: T2, Human serum albumin (human, UniProt P02768 25-609); test: SPR, SA on chip, 1:1 fit, 25 C
T2 construct: bought; immobilised on a CM5 chip by amine coupling; also called Human SA

[4] = target: T3, Cynomolgus monkey serum albumin (cynomolgus monkey, UniProt A2V9Z4 25-608); test: SPR, SA on chip, 1:1 fit, 25 C
T3 construct: bought; immobilised on a CM5 chip by amine coupling; also called Cyno SA

Mouse serum albumin [5] = target: T4, Mouse serum albumin (mouse, UniProt P07724 25-608); test: SPR, SA on chip, 1:1 fit, 25 C
T4 construct: bought; immobilised on a CM5 chip by amine coupling; also called Mouse SA

Rat serum albumin [6] = target: T5, Rat serum albumin (rat, UniProt P02770 25-608); test: SPR, SA on chip, 1:1 fit, 25 C
T5 construct: bought; immobilised on a CM5 chip by amine coupling; also called Rat SA

Pig serum albumin [7] = target: T6, Pig serum albumin (pig, UniProt P08835 25-607); test: SPR, SA on chip, 1:1 fit, 25 C
T6 construct: bought; immobilised on a CM5 chip by amine coupling; also called Pig SA

Dog serum albumin [8] = target: T7, Dog serum albumin (dog, UniProt P49822 25-608); test: SPR, SA on chip, 1:1 fit, 25 C
T7 construct: bought; immobilised on a CM5 chip by amine coupling; also called Dog SA

Cow serum albumin [9] = target: T8, Cow serum albumin (cow, UniProt P02769 25-607); test: SPR, SA on chip, 1:1 fit, 25 C
T8 construct: bought; immobilised on a CM5 chip by amine coupling; also called Cow SA

Rabbit serum albumin [10] = target: T1, Rabbit serum albumin; test: SPR, SA on chip, 25 C; remark: listed apart in the source
Human serum albumin [11] = target: T2, Human serum albumin; test: SPR, SA on chip, 1:1 fit, 25 C; remark: listed apart in the source
[12] = target: T3, Cynomolgus monkey serum albumin; test: SPR, SA on chip, 1:1 fit, 25 C; remark: listed apart in the source
Mouse serum albumin [13] = target: T4, Mouse serum albumin; test: SPR, SA on chip, 1:1 fit, 25 C; remark: listed apart in the source
Rat serum albumin [14] = target: T5, Rat serum albumin; test: SPR, SA on chip, 1:1 fit, 25 C; remark: listed apart in the source
Pig serum albumin [15] = target: T6, Pig serum albumin; test: SPR, SA on chip, 1:1 fit, 25 C; remark: listed apart in the source
Dog serum albumin [16] = target: T7, Dog serum albumin; test: SPR, SA on chip, 1:1 fit, 25 C; remark: listed apart in the source
Cow serum albumin [17] = target: T8, Cow serum albumin; test: SPR, SA on chip, 1:1 fit, 25 C; remark: listed apart in the source
Rabbit serum albumin [18] = target: T1, Rabbit serum albumin; test: SPR, SA on chip, 25 C; remark: listed apart in the source
[19] = target: human GFRAL and human RET on HEK293 cells (human, UniProt Q6UXV0 19-394; P07949 29-1114); test: cell-based or functional assay
Human serum albumin [20] = target: T2, Human serum albumin; test: SPR, SA on chip, 1:1 fit, 25 C; remark: listed apart in the source
[21] = target: T3, Cynomolgus monkey serum albumin; test: SPR, SA on chip, 1:1 fit, 25 C; remark: listed apart in the source
Mouse serum albumin [22] = target: T4, Mouse serum albumin; test: SPR, SA on chip, 1:1 fit, 25 C; remark: listed apart in the source
Rat serum albumin [23] = target: T5, Rat serum albumin; test: SPR, SA on chip, 1:1 fit, 25 C; remark: listed apart in the source
Pig serum albumin [24] = target: T6, Pig serum albumin; test: SPR, SA on chip, 1:1 fit, 25 C; remark: listed apart in the source
Dog serum albumin [25] = target: T7, Dog serum albumin; test: SPR, SA on chip, 1:1 fit, 25 C; remark: listed apart in the source
Cow serum albumin [26] = target: T8, Cow serum albumin; test: SPR, SA on chip, 25 C; ka and kd printed as *not applicable
Rabbit serum albumin [27] = target: T1, Rabbit serum albumin; test: SPR, SA on chip, 25 C; remark: listed apart in the source
[28] = target: human ErbB4 receptor (NCBI Ref. Seq. No. NP_001036064.1) (human, UniProt Q15303 26-1308); test: cell-based or functional assay
Human serum albumin [29] = target: T2, Human serum albumin; test: SPR, SA on chip, 1:1 fit, 25 C; remark: listed apart in the source
[30] = target: T3, Cynomolgus monkey serum albumin; test: SPR, SA on chip, 1:1 fit, 25 C; remark: listed apart in the source
Mouse serum albumin [31] = target: T4, Mouse serum albumin; test: SPR, SA on chip, 1:1 fit, 25 C; remark: listed apart in the source
Rat serum albumin [32] = target: T5, Rat serum albumin; test: SPR, SA on chip, 1:1 fit, 25 C; remark: listed apart in the source
Pig serum albumin [33] = target: T6, Pig serum albumin; test: SPR, SA on chip, 1:1 fit, 25 C; remark: listed apart in the source
Dog serum albumin [34] = target: T7, Dog serum albumin; test: SPR, SA on chip, 1:1 fit, 25 C; remark: listed apart in the source
Cow serum albumin [35] = target: T8, Cow serum albumin; test: SPR, SA on chip, 1:1 fit, 25 C; remark: listed apart in the source

B1: VHH-based fusion of Example 7, VHH fusion 7 (MC6.1C22-(G4Q)5-IL2) (other)
chain: EVQLLESGGGLVQPGGSLRLSCAASGRYIDETAVAWFRQAPGKEREFVAGIGGGVDITYYADSVKGRFTISRDNSKNTLYLQMNSLRPEDTAVYYCAARPGRPLITSKVADLYPYWGQGTLVTVSSGGGGQGGGGQGGGGQGGGGQGGGGQAPQSSSTQQTQLQLEHLLLDLQMILNGINNYKNPKLTRMLTFKFYMPKKATELKHLQCLEEELKPLEEVLNLAQSKNFHLRPRDLISRINVIVLELKGSETTFMCEYADETATIVEFLNRWITFAQSIISTLT
notes: also called Compound 7; VHH-IL-2 fusion
binding result (Rabbit serum albumin [1]): no binding (tested: up to 1000 nM) | EC50 (nM), PathHunter IL-2 BioAssay [2]: 0.49 nM | Kd (Human serum albumin [3]): 0.23 nM | koff (Human serum albumin [3]): 0.00021 s⁻¹ | kon (Human serum albumin [3]): 910000 M⁻¹ s⁻¹ | Kd [4]: 0.39 nM | koff [4]: 0.00056 s⁻¹ | kon [4]: 1.4e+06 M⁻¹ s⁻¹ | Kd (Mouse serum albumin [5]): 3.9 nM | koff (Mouse serum albumin [5]): 0.0038 s⁻¹ | kon (Mouse serum albumin [5]): 970000 M⁻¹ s⁻¹ | Kd (Rat serum albumin [6]): 3 nM | koff (Rat serum albumin [6]): 0.0029 s⁻¹ | kon (Rat serum albumin [6]): 970000 M⁻¹ s⁻¹ | Kd (Pig serum albumin [7]): 13 nM | koff (Pig serum albumin [7]): 0.0058 s⁻¹ | kon (Pig serum albumin [7]): 450000 M⁻¹ s⁻¹ | Kd (Dog serum albumin [8]): 1.8 nM | koff (Dog serum albumin [8]): 0.0016 s⁻¹ | kon (Dog serum albumin [8]): 920000 M⁻¹ s⁻¹ | Kd (Cow serum albumin [9]): 78 nM | koff (Cow serum albumin [9]): 0.052 s⁻¹ | kon (Cow serum albumin [9]): 670000 M⁻¹ s⁻¹

B2: VHH-based fusion of Example 6, VHH fusion 6 (IL2-(G4Q)5-MC6.1C22.43) (other)
chain: APQSSSTQQTQLQLEHLLLDLQMILNGINNYKNPKLTRMLTFKFYMPKKATELKHLQCLEEELKPLEEVLNLAQSKNFHLRPRDLISRINVIVLELKGSETTFMCEYADETATIVEFLNRWITFAQSIISTLTGGGGQGGGGQGGGGQGGGGQGGGGQEVQLLESGGGLVQPGGSLRLSCAASGRYIDETAVAWFRQAPGKEREFVAGIGGGVDITYYADSVKGRFTISRDNSKNTLYLQMNSLRPEDTAVYYCAARPGRPLITSKVADLYPYWGQGTLVTVSSPP
notes: also called Compound 6; IL-2-VHH fusion
binding result (Rabbit serum albumin [10]): no binding (tested: up to 1000 nM) | EC50 (nM), PathHunter IL-2 BioAssay [2]: 6.7 nM | Kd (Human serum albumin [11]): 1.5 nM | koff (Human serum albumin [11]): 0.00026 s⁻¹ | kon (Human serum albumin [11]): 180000 M⁻¹ s⁻¹ | Kd [12]: 5 nM | koff [12]: 0.00088 s⁻¹ | kon [12]: 180000 M⁻¹ s⁻¹ | Kd (Mouse serum albumin [13]): 50 nM | koff (Mouse serum albumin [13]): 0.0087 s⁻¹ | kon (Mouse serum albumin [13]): 170000 M⁻¹ s⁻¹ | Kd (Rat serum albumin [14]): 34 nM | koff (Rat serum albumin [14]): 0.0066 s⁻¹ | kon (Rat serum albumin [14]): 190000 M⁻¹ s⁻¹ | Kd (Pig serum albumin [15]): 100 nM | koff (Pig serum albumin [15]): 0.012 s⁻¹ | kon (Pig serum albumin [15]): 120000 M⁻¹ s⁻¹ | Kd (Dog serum albumin [16]): 19 nM | koff (Dog serum albumin [16]): 0.0034 s⁻¹ | kon (Dog serum albumin [16]): 170000 M⁻¹ s⁻¹ | Kd (Cow serum albumin [17]): 380 nM | koff (Cow serum albumin [17]): 0.071 s⁻¹ | kon (Cow serum albumin [17]): 190000 M⁻¹ s⁻¹

B3: VHH-based fusion of Example 5, VHH fusion 5 (MC6.1C22-(G4Q)5-GDF15) (other)
chain: EVQLLESGGGLVQPGGSLRLSCAASGRYIDETAVAWFRQAPGKEREFVAGIGGGVDITYYADSVKGRFTISRDNSKNTLYLQMNSLRPEDTAVYYCAARPGRPLITSKVADLYPYWGQGTLVTVSSGGGGQGGGGQGGGGQGGGGQGGGGQGDHCPLGPGRCCRLHTVRASLEDLGWADWVLSPREVQVTMCIGACPSQFRAANMHAQIKTSLHRLKPDTVPAPCCVPASYNPMVLIQKTDTGVSLQTYDDLLAKDCHCI
notes: also called Compound 5; VHH-GDF15 fusion
binding result (Rabbit serum albumin [18]): no binding (tested: up to 1000 nM) | hGFRAL/RET EC50 (pM), p-ERK1/2 AlphaLISA [19]: 101 pM | Kd (Human serum albumin [20]): 0.2 nM | koff (Human serum albumin [20]): 0.00014 s⁻¹ | kon (Human serum albumin [20]): 670000 M⁻¹ s⁻¹ | Kd [21]: 0.45 nM | koff [21]: 0.00034 s⁻¹ | kon [21]: 740000 M⁻¹ s⁻¹ | Kd (Mouse serum albumin [22]): 0.86 nM | koff (Mouse serum albumin [22]): 0.0012 s⁻¹ | kon (Mouse serum albumin [22]): 1.4e+06 M⁻¹ s⁻¹ | Kd (Rat serum albumin [23]): 0.74 nM | koff (Rat serum albumin [23]): 0.00077 s⁻¹ | kon (Rat serum albumin [23]): 1e+06 M⁻¹ s⁻¹ | Kd (Pig serum albumin [24]): 3.3 nM | koff (Pig serum albumin [24]): 0.0028 s⁻¹ | kon (Pig serum albumin [24]): 850000 M⁻¹ s⁻¹ | Kd (Dog serum albumin [25]): 0.6 nM | koff (Dog serum albumin [25]): 0.00068 s⁻¹ | kon (Dog serum albumin [25]): 1.1e+06 M⁻¹ s⁻¹ | Kd (Cow serum albumin [26]): 28 nM

B4: VHH-based fusion of Example 4, VHH fusion 4 (MC6.1C22-(G4Q)5-NRG1) (other)
chain: EVQLLESGGGLVQPGGSLRLSCAASGRYIDETAVAWFRQAPGKEREFVAGIGGGVDITYYADSVKGRFTISRDNSKNTLYLQMNSLRPEDTAVYYCAARPGRPLITSKVADLYPYWGQGTLVTVSSGGGGQGGGGQGGGGQGGGGQGGGGQSHLVKCAEKEKTFCVNGGECFMVKDLSNPSRYLCKCPNEFTGDRCQNYVMASFYKHLGIEFMEAEELYQ
notes: also called Compound 4; VHH-NRG1 fusion
binding result (Rabbit serum albumin [27]): no binding (tested: up to 1000 nM) | EC50 (ng/mL), PathHunter ErbB4/ErbB4 dimerization assay [28]: 112 ng/mL | Kd (Human serum albumin [29]): 0.19 nM | koff (Human serum albumin [29]): 0.00019 s⁻¹ | kon (Human serum albumin [29]): 1e+06 M⁻¹ s⁻¹ | Kd [30]: 0.94 nM | koff [30]: 0.00063 s⁻¹ | kon [30]: 680000 M⁻¹ s⁻¹ | Kd (Mouse serum albumin [31]): 6.4 nM | koff (Mouse serum albumin [31]): 0.0042 s⁻¹ | kon (Mouse serum albumin [31]): 660000 M⁻¹ s⁻¹ | Kd (Rat serum albumin [32]): 3.1 nM | koff (Rat serum albumin [32]): 0.003 s⁻¹ | kon (Rat serum albumin [32]): 970000 M⁻¹ s⁻¹ | Kd (Pig serum albumin [33]): 15 nM | koff (Pig serum albumin [33]): 0.006 s⁻¹ | kon (Pig serum albumin [33]): 400000 M⁻¹ s⁻¹ | Kd (Dog serum albumin [34]): 2.2 nM | koff (Dog serum albumin [34]): 0.0017 s⁻¹ | kon (Dog serum albumin [34]): 780000 M⁻¹ s⁻¹ | Kd (Cow serum albumin [35]): 100 nM | koff (Cow serum albumin [35]): 0.058 s⁻¹ | kon (Cow serum albumin [35]): 570000 M⁻¹ s⁻¹
